Assays:
[1] = molecular target: T1, SNAP tagged septin rod labeled with BG-biotin (S. cerevisiae, UniProt P32458 1-415; P32468 1-407; P32457 1-520; P25342 1-322, biotin, covalently attached with BG-Biotin to the SNAP tag); assay: SPR; same dataset as a8; sensograms fitted with a two state reaction model (to compensate for background binding of Bni5 to the antibody-coated surface); contact 120 or 180 s, dissociation 600 s; settings: both partners purified
T1 construct: Cdc11, S. cerevisiae septin; ORF amplified by PCR from genomic DNA; Cdc12, S. cerevisiae septin; Cdc3, S. cerevisiae septin; Cdc10, S. cerevisiae septin; calculated molecular weight 432.5 kDa; also called septin rods; biotinylated septin rods; source: E. coli BL21(DE3), four subunits co-expressed, purified (IMAC, Resource Q anion exchange), labeled with BG-Biotin; not shown: S tag, N-terminal, …

[2] = molecular target: T1, SNAP tagged septin rod labeled with …; assay: SPR; Biacore X100; biotinylated SNAP tagged septin rods captured (about 100 RU) on an anti-biotin antibody coated CM5 chip; Bni5 0-1600 nM as analyte in MSP buffer (10 mM MES, 150 mM NaCl, 0.05% Tween 20, pH 7.4); KD from the analyte response plotted against concentration; settings: both partners purified
[3] = molecular target: the molecule itself; assay: co-sedimentation + other: fluorescence microscopy; 2 uM SNAP tagged rods labeled with BG-TMR, dialyzed into low salt buffer (50 mM NaCl, 50-200 mM Tris-HCl pH 8.0), 16 h at 4 C, pelleted at 100,000 g, on poly-L-lysine slides

Binder	Kd [1] [nM]	koff [1] [s⁻¹]	kon [1] [M⁻¹ s⁻¹]	Kd [2] [nM]	binding result [3]
Bni5 (natural protein, S. cerevisiae, UniProt P53890 1-448, looked up, Bni5, S. cerevisiae; BNI5 PCR amplified from genomic DNA, cloned in a pET15b derived expression plasmid; primers are in Additional file 1; also called purified Bni5 (analyte protein); 6his tagged Bni5; source: E. coli BL21(DE3), purified (IMAC, size exclusion chromatography)) MGLDQDKIKKRLSQIEIDINQMNQMIDENLQLVEPAEDEAVEDNVKDTGVVDAVKVAETALFSGNDGADSNPGDSAQVEEHKTAQVHIPTENEANKSTDDPSQLSVTQPFIAKEQITHTAIAIGDSYNSFVANSAGNEKAKDSCTENKEDGTVNIDQNRGEADVEIIENNDDEWEDEKSDVEEGRVDKGTEENSEIESFKSPMPQNNTLGGENKLDAELVLDKFSSANKDLDIQPQTIVVGGDNEYNHESSRLADQTPHDDNSENCPNRSGGSTPLDSQTKIFIPKKNSKEDGTNINHFNSDGDGQKKMANFETRRPTNPFRVISVSSNSNSRNGSRKSSLNKYDSPVSSPITSASELGSIAKLEKRHDYLSMKCIKLQKEIDYLNKMNAQGSLSMEDGKRLHRAVVKLQEYLDKKTKEKYEVGVLLSRHLRKQIDRGENGQFWIGTK	253	0.037	51000	313	
SNAP tagged septin rod labeled with BG-TMR (complex, S. cerevisiae, tetramethylrhodamine (TMR), covalently attached with BG-TMR to the SNAP tag, Cdc11, S. cerevisiae septin; ORF amplified by PCR from genomic DNA; Cdc12, S. cerevisiae septin; Cdc3, S. cerevisiae septin; Cdc10, S. cerevisiae septin; also called SNAP tagged, TMR labeled septin filaments; TMR labeled septin filaments; source: E. coli BL21(DE3), four subunits co-expressed, purified (IMAC, Resource Q anion exchange), labeled with BG-TMR; copies: 2 + 2 + 2 + 2) chain 1: MSGIIDASSALRKRKHLKRGITFTVMIVGQSGSGRSTFINTLCGQQVVDTSTTILLPTDTSTEIDLQLREETVELEDDEGVKIQLNIIDTPGFGDSLDNSPSFEIISDYIRHQYDEILLEESRVRRNPRFKDGRVHCCLYLINPTGHGLKEIDVEFIRQLGSLVNIIPVISKSDSLTRDELKLNKKLIMEDIDRWNLPIYNFPFDEDEISDEDYETNMYLRTLLPFAIIGSNEVYEMGGDVGTIRGRKYPWGILDVEDSSISDFVILRNALLISHLHDLKNYTHEILYERYRTEALSGESVAAESIRPNLTKLNGSSSSSTTTRRNTNPFKQSNNINNDVLNPASDMHGQSTGENNETYMTREEQIRLEEERLKAFEERVQQELLLKRQELLQREKELREIEARLEKEAKIKQEE chain 2: MSAATATAAPVPPPVGISNLPNQRYKIVNEEGGTFTVMLCGESGLGKTTFINTLFQTVLKRADGQQHRQEPIRKTVEIDITRALLEEKHFELRVNVIDTPGFGDNVNNNKAWQPLVDFIDDQHDSYMRQEQQPYRTKKFDLRVHAVLYFIRPTGHGLKPIDIETMKRLSTRANLIPVIAKADTLTAQELQQFKSRIRQVIEAQEIRIFTPPLDADSKEDAKSGSNPDSAAVEHARQLIEAMPFAIVGSEKKFDNGQGTQVVARKYPWGLVEIENDSHCDFRKLRALLLRTYLLDLISTTQEMHYETYRRLRLEGHENTGEGNEDFTLPAIAPARKLSHNPRYKEEENALKKYFTDQVKAEEQRFRQWEQNIVNERIRLNGDLEEIQGKVKKLEEQVKSLQVKKSHLK chain 3: MSLKEEQVSIKQDPEQEERQHDQFNDVQIKQESQDHDGVDSQYTNGTQNDDSERFEAAESDVKVEPGLGMGITSSQSEKGQVLPDQPEIKFIRRQINGYVGFANLPKQWHRRSIKNGFSFNLLCVGPDGIGKTTLMKTLFNNDDIEANLVKDYEEELANDQEEEEGQGEGHENQSQEQRHKVKIKSYESVIEENGVKLNLNVIDTEGFGDFLNNDQKSWDPIIKEIDSRFDQYLDAENKINRHSINDKRIHACLYFIEPTGHYLKPLDLKFMQSVYEKCNLIPVIAKSDILTDEEILSFKKTIMNQLIQSNIELFKPPIYSNDDAENSHLSERLFSSLPYAVIGSNDIVENYSGNQVRGRSYPWGVIEVDNDNHSDFNLLKNLLIKQFMEELKERTSKILYENYRSSKLAKLGIKQDNSVFKEFDPISKQQEEKTLHEAKLAKLEIEMKTVFQQKVSEKEKKLQKSETELFARHKEMKEKLTKQLKALEDKKKQLELSINSASPNVNHSPVPTKKKGFLR chain 4: MDPLSSVQPASYVGFDTITNQIEHRLLKKGFQFNIMVVGQSGLGKSTLINTLFASHLIDSATGDDISALPVTKTTEMKISTHTLVEDRVRLNINVIDTPGFGDFIDNSKAWEPIVKYIKEQHSQYLRKELTAQRERFITDTRVHAILYFLQPNGKELSRLDVEALKRLTEIANVIPVIGKSDTLTLDERTEFRELIQNEFEKYNFKIYPYDSEELTDEELELNRSVRSIIPFAVVGSENEIEINGETFRGRKTRWSAINVEDINQCDFVYLREFLIRTHLQDLIETTSYIHYEGFRARQLIALKENANSRSSAHMSSNAIQR					binds
